Reference: patent US7026282B1, “Peptide antagonists of the human urokinase receptor and method for selecting them” (Cancerforskningsfonden AF 1989 (Fonden Til Fremme AF …, priority 1998, dated 2006)
“Also recorded” adds a separate entry of the source. One block for each molecule: values may come before it. Positions of bridges follow the written chain, without caps; N, C: chain ends. Non-standard residues stand in square brackets, D forms with d. Residues, ends and D or L forms follow the SMILES beside them. Chains are numbered I, II in the order given. No end group written: not given here. Cha = N[C@@H](CC1CCCCC1)C(=O)O; βAla = NCCC(=O)O

Legend:
[1] = target: cell-surface uPAR on monolayer cultures of human MDA-MB-231 breast cancer cells (Homo sapiens, UniProt Q03405); assay: Cell binding experiments with 125I-labelled human ATF (uPA/uPAR Binding Assay)
Sequence of cell-surface uPAR on monolayer cultures of human MDA-MB-231 breast cancer cells (Q03405 23-305): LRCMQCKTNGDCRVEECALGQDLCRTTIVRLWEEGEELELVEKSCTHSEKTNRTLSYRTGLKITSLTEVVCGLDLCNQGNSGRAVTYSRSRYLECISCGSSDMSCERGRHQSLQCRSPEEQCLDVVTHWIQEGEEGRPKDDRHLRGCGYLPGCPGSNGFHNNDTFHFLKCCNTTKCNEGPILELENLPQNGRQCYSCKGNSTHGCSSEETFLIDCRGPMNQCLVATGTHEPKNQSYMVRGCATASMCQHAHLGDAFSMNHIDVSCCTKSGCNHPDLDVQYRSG
Description: The peptides were tested for their ability to inhibit binding of radio-labelled amino terminal fragment (ATF) of human uPA to monolayer cultures of human MDA-MB-231 breast cancer cells.
MDA-MB-231 BAG cells were harvested by trypsin/EDTA treatment and added to 5% FCS supplemented medium in 24 well cluster plates at a cell density of 100,000 cells per well or as indicated otherwise. For background estimation, wells without cells were included in order to measure binding of ^125I-labelled ligand to the plastic. Next day the adherent monolayers were washed twice in binding-buffer (0.1% bovine serum albumin (BSA; Fraction V, Sigma) and 5 mM Hepes in Eagles MEM supplemented with Glutamax-1, pH 7.4). Before binding experiments, the cells were subjected to acid treatment to liberate receptor-bound endogenous uPA. Each culture well was incubated for 3 min at 23° C. with 200 μL of 0.05 M glycine-HCl, 0.1 M NaCl, pH 3.0, after which 200 μL of 0.5 M Hepes, 0.1 M NaCl pH 7.5 was added to neutralize the acid buffer. The wells were then emptied and washed once with binding buffer. Various competitors diluted in binding buffer were then added to the wells, followed by a pre-incubation at 37° C. for 15 min. Finally, ^125I-labelled ligand was added to each well at a final concentration of 1 nM. […] Aliquots from the wells were finally measured for radioactivity on a γ-counter.

[2] = target: T1, neuramimidase-treated human suPAR (soluble recombinant uPAR) (Homo sapiens, UniProt Q03405); assay: Biacore Binding Assay (surface plasmon resonance), ligand binding to immobilised suPAR; conditions: for koff: Biacore, 5° C., immobilised suPAR, read-out: kdiss (dissociation rate constant, off-rate)
T1 construct: A soluble recombinant variant of human uPAR (suPAR) was expressed in Chinese hamster ovary (dhfr) cells; made in house; host or cells: Chinese hamster ovary (dhfr) cells
Description: Association rate constants (kass), dissociation rate constants (kdiss) and equilibrium binding constants (kd) for various synthetic peptides and receptor binding derivatives of human uPA were determined by surface plasmon resonance (R. Karlsson et al. (1991) J. Immunol. Meths. 145:229–240) using a BIAcore2000™ instrument (Pharmacia Biosensor, Uppsala, Sweden). Due to the low isoelectric point of uPAR (pI≈4.5) terminal sialic acid residues were removed from its N-linked carbohydrates to facilitate chemical immobilisation on the sensor chip. This was accomplished by incubating purified suPAR (1 mg/ml in 50 mM phosphate, 150 mM NaCl, pH 7.4) with 5 μg/ml neuramimidase for 4 hours at 37° C. […] Coupling of the neuramimidase-treated suPAR to a BIAcore sensor chip was achieved by injection of 20 μg/ml suPAR in 10 mM sodium acetate pH 5.0 for 6 minutes at a flow rate of […] per minute using a carboxymethylated dextran matrix (CM5 sensor chip) preactivated with N-hydroxysuccinimide/N-ethyl-N′-[3-([…])propyl]carbodiimide according to the manufacturer's recommendations. Approximately 1,500–2,000 resonance units (RU) were immobilised by this procedure (corresponding to 1–2 ng suPAR/mrn^2).
Sensorgrams (RU versus time) were recorded (FIG. 2) at a flow rate of 10 μl per min at 5° C. using several different concentrations of the ligand (synthetic peptides, uPA, the amino-terminal fragment (ATF) of uPA, or the growth factor domain (GFD) of uPA) in the range of 10 to 1000 nM in running buffer (10 mM HEPES, 150 mM NaCl, 3 mM EDTA (pH 7.4) including 0.005% surfactant P-20). Stock solutions of peptides from combinatorial chemistry were made in DMSO (10 mg peptide/ml DMSO). The sensor chip was regenerated at the end of each run by injection of 0.1 M acetic acid, 0.5 M NaCl. Data obtained from parallel mock coupled flow cells (subjected to the coupling procedure in the presence of buffer only) served as blank sensorgrams for subtraction of changes in bulk refractive index. The sensorgrams obtained were analysed by non-linear least squares fitting using BIAevaluation 2.0 software (Pharmacia Biosensor, Uppsala, Sweden) assuming single-site association and dissociation models.
Purified human suPAR (1 mg/ml in 50 mM phosphate, 150 mM NaCl, pH 7.4) was incubated with 5 μg/ml neuramimidase for 4 hours at 37° C.
In order to couple the neuramimidase-treated suPAR to a BIAcore sensor chip, 20 μg/ml suPAR in 10 mM sodium acetate (pH 5.0) was injected for 6 minutes at a flow rate of 5 μl per minute using a carboxymethylated dextran matrix (CM5 sensor chip), thereby immobilising approximately 1,500–2,000 resonance units (RU), which correspond to 1–2 ng suPAR/mm^2. The CM5 sensor chip was preactivated with N-hydroxysuccinimide/N-ethyl-N′-[3-([…])propyl]carbodiimide in accordance with the manufacturer's recommendations.
Surface plasmon resonance sensorgrams (RU versus time) were recorded at a flow rate of 10 μl per min at 5° C. using several different concentrations of the ligand (i.e. the relevant peptide or GFD) in the range from 10 to 1000 nM in running buffer (10 mM HEPES, 150 mM NaCl, 3 mM EDTA (pH 7.4) including 0.005% surfactant P-20).
The sensor chip was regenerated at the end of each run by injection of 0.1 M acetic acid, 0.5 M NaCl.
Data from parallel mock coupled flow cells (subjected to the coupling procedure in the presence of buffer only) served as blank sensorgrams for subtraction of changes in bulk refractive index.
The obtained sensorgrams were analysed by non-linear least squares fitting using BIAevaluation 2.0 software (Pharmacia Biosensor, Uppsala, Sweden) assuming single-site ssociation and dissociation models.

[3] = Peptide stability in mouse serum ex vivo, read out by ATF cell-binding inhibition; type: in vitro ADME; conditions: 10% mouse serum, up to 24 hours, 37° C.
Description: Mouse blood was collected from anaesthetised mice (femal nu/nu-META/Bom (Bomholtgaard, Ry, Denmark)) by cardiac puncture. The blood samples were allowed to clot for 30 min at room temperature, followed by centrifugation at 1,000×g for 10 min at 20° C., and the sera were sterile filtered using 0.8 μm/0.2 μm filters (Acrodisc PF, Gelman Science, MI) and then stored at 4° C. until use. The peptide antagonists were added to fresh pooled mouse serum at the indicated concentrations (FIG. 5) and incubated at 37° C. for different periods, between 0 hours and 24 hours. Serum incubated samples were diluted 1:10 in binding buffer (0.1% bovine serum albumin and 5 mM Hepes in Eagles MEM supplemented with Glutamax-1, pH 7.4). Subsequently, cell binding experiments in the presence of ^125I-labelled human ATF were performed in duplicates as above, by preincubating MDA-MB-231 BAG cells at 37° C. 15 min with the 1:10 diluted serum incubated samples ± peptides. In parallel, peptides diluted in binding buffer alone were included as controls.
AE118 and AE78 (for comparison) were incubated at 37° C. in the presence of 10% mouse serum for different time intervals, up to 24 hours. The incubation mixtures were tested for their ability to inhibit binding of radio-labelled human uPA amino terminal fragment (ATF) to monolayer cultures of human MDA-MB-231 breast cancer cells, as described in Example 7.

[4] = target: soluble recombinant variant of human uPAR (suPAR) (human) (UniProt Q03405); assay: SPR (Biacore), immobilised human suPAR
Sequence of soluble recombinant variant of human uPAR (suPAR) (human) (Q03405 23-299, change not shown): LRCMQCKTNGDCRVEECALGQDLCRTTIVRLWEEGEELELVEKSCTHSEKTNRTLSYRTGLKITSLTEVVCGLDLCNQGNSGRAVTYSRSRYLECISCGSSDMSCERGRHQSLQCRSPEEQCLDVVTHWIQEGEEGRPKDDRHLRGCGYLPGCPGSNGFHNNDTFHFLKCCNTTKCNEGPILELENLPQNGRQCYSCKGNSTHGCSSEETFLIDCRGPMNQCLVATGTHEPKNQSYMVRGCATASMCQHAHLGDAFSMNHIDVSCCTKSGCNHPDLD

[5] = target: soluble recombinant variant of human uPAR (suPAR) (human) (UniProt Q03405); assay: SPR (Biacore), ligand over immobilised neuramimidase-treated human suPAR
[6] = target: T2, human uPAR on the surface of human MDA-MB-231 breast cancer cells (human, UniProt Q03405 23-305); assay: competition with 1 nM ^125I-labelled human ATF for binding to MDA-MB-231 cell monolayers
T2 construct: whole, on cells; also called cell-surface uPAR
T2 sequence (Q03405 23-305): as the sequence (Q03405 23-305) above

Molecule: DXFSRYLWS (beta-cyclohexyl-L-alanine (Cha) at 2; D-Ser at 4; D-Arg at 5) [AE105]
fold slower off-rate than AE78 [4]: 48 fold
Relative kdiss (relative to GFD) [5]: 1.5

Molecule: DNF[dS][dR]YLWS [AE113]
Relative kdiss (relative to GFD) [5]: > 100

B1: AE118 (peptide)
peptide 1: D[Cha]F[dS][dR]YLWSGK
peptide 2: D[Cha]F[dS][dR]YLWSG
modifications: also: lactam at chain A 11 at chain B 10 to a chain's C-terminus
notes: also called [DChaFsrYLWSG]2-K; dimer AE118
fold slower off-rate than the monomer AE105 [4]: 5 to 7 times
IC50 [6]: 2 nM
Relative kdiss (relative to GFD) [5]: 0.28

Molecule: AEPMPHSLNFSQYLWYT (also called Clone 20) [AE78]
IC50 [6]: 200 nM
Relative kdiss (relative to GFD) [5]: 72.1

Molecule: DFF[dS][dR]YLWS [AE112]
Relative kdiss (relative to GFD) [5]: 12.9
koff [5]: 0.00181 s⁻¹

B2: AE120 (peptide)
peptide 1: D[Cha]F[dS][dR]YLWSG[βAla]K
peptide 2: D[Cha]F[dS][dR]YLWSG
modifications: also: lactam at chain A 12 at chain B 10 to a chain's C-terminus
fold slower off-rate than the monomer AE105 [4]: 5 to 7 times
Relative kdiss (relative to GFD) [5]: 0.21

The next lines start with results.

IC50 ([1]; 1 nM 125I-labelled human ATF, 0.1% BSA, read-out: IC50, inhibition of the binding of ATF to MDA-MB-231 cells): 10 nM
koff [2]: 0.00021 s⁻¹
off-rate, fold slower than AE78 ([2]; compared with AE78): 48 fold
Relative kdiss ([2]; relative to the Growth Factor Domain of uPA (GFD = 1.0)): 1.5
Molecule: CC(C)C[C@H](NC(=O)[C@H](Cc1ccc(O)cc1)NC(=O)[C@@H](CCCNC(=N)N)NC(=O)[C@@H](CO)NC(=O)[C@H](Cc1ccccc1)NC(=O)[C@H](CC1CCCCC1)NC(=O)[C@@H](N)CC(=O)O)C(=O)N[C@@H](Cc1c[nH]c2ccccc12)C(=O)N[C@@H](CO)C(=O)O [AE105, DchaFsrYLWS]
effectiveness in inhibiting radio-labelled human ATF binding to cell-surface uPAR ([1]; 0.1% bovine serum albumin): more effective than the reference peptide AE78

koff [2]: 4e-05 s⁻¹
Molecule: CC(C)C[C@H](NC(=O)[C@H](Cc1ccc(O)cc1)NC(=O)[C@@H](CCCNC(=N)N)NC(=O)[C@@H](CO)NC(=O)[C@H](Cc1ccccc1)NC(=O)[C@H](CC1CCCCC1)NC(=O)[C@@H](N)CC(=O)O)C(=O)N[C@@H](Cc1c[nH]c2ccccc12)C(=O)N[C@@H](CO)C(=O)NCC(=O)NCCCC[C@H](NC(=O)CNC(=O)[C@H](CO)NC(=O)[C@H](Cc1c[nH]c2ccccc12)NC(=O)[C@H](CC(C)C)NC(=O)[C@H](Cc1ccc(O)cc1)NC(=O)[C@@H](CCCNC(=N)N)NC(=O)[C@@H](CO)NC(=O)[C@H](Cc1ccccc1)NC(=O)[C@H](CC1CCCCC1)NC(=O)[C@@H](N)CC(=O)O)C(=O)O [AE118, [DChaFsrYLWSG]2-K] (I: H-D[Cha]F[dS][dR]YLWSGK-OH / II: H-D[Cha]F[dS][dR]YLWSG; amide I:11-II:C; N-terminus and C-terminus assumed)
ability to inhibit ATF binding after incubation in mouse serum (stability) [3]: only a slight reduction; also recorded: more resistant than AE78
